Data published in patent publication US5681719, “DNA encoding N- and C- terminally truncated colony stimulating factor-1 variants” (Chiron Corporation, dated 1997).
Where “and” joins values, the source holds several entries; their conditions need not be identical. Equal entries are not always repeated.

T1: specific receptors for CSF-1 on J774.2 mouse macrophage cells (mouse) (UniProt P09581)
T1 sequence: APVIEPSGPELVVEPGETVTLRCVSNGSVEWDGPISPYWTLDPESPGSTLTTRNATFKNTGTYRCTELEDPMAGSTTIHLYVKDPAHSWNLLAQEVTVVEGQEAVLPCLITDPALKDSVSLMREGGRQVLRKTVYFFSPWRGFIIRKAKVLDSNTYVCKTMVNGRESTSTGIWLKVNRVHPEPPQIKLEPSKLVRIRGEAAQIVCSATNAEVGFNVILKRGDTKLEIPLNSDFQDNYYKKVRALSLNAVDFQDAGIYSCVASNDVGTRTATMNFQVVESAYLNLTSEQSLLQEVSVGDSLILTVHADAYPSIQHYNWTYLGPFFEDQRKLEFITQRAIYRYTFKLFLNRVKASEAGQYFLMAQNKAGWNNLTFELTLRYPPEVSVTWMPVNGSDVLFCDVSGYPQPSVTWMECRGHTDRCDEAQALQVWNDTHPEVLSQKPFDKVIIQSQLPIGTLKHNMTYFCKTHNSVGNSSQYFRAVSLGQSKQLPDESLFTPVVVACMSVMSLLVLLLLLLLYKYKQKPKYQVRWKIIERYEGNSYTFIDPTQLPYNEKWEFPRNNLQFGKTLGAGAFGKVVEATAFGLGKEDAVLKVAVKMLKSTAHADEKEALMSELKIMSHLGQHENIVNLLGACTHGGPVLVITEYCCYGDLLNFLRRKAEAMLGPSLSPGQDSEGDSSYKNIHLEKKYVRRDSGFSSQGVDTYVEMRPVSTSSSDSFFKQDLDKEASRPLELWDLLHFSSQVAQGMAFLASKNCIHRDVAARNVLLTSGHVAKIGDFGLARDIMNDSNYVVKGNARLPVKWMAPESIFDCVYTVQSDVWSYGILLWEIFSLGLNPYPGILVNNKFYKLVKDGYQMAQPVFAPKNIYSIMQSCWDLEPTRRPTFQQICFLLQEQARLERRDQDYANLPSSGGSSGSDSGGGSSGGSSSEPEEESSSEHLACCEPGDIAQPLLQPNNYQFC

T2: specific receptors for CSF-1 on J774.2 mouse macrophage cells (mouse, UniProt P09581)
T2 sequence: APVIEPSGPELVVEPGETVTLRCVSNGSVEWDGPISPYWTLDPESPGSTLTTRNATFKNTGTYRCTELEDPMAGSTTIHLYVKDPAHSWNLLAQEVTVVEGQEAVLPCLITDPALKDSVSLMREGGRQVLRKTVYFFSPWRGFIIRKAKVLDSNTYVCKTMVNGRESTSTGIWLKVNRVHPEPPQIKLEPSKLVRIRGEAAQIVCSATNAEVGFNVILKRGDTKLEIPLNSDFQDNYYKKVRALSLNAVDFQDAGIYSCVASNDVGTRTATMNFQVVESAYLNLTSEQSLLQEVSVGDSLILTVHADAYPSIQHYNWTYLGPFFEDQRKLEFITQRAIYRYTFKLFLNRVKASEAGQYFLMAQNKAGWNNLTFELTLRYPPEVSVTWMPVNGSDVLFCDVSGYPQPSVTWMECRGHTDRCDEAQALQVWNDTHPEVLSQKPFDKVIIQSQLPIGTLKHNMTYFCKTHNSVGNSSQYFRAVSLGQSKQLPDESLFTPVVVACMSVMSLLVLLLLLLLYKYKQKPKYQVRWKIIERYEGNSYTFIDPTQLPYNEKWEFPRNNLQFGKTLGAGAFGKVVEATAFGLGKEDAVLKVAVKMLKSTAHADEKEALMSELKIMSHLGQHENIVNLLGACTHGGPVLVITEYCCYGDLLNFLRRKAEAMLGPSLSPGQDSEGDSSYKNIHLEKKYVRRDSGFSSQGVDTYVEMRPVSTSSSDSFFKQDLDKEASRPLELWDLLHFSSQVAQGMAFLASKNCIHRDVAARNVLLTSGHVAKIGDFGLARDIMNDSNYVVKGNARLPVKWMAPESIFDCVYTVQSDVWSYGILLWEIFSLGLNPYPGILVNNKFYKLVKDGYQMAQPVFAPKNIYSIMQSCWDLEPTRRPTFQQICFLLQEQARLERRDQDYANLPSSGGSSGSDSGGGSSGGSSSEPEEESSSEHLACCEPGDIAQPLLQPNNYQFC


How the values were obtained:
[1] = target: T1, specific receptors for CSF-1 on J774.2 mouse macrophage cells (mouse)
[2] = target: T1, specific receptors for CSF-1 on J774.2 mouse macrophage cells (mouse); remark: listed apart in the source
[3] = target: rabbit antisera raised against human urinary CSF-1; test: radioimmunoassay using anti-CSF antibodies, COS-A2 supernatant; first of three values
[4] = target: T2, specific receptors for CSF-1 on J774.2 …; test: cell-based or functional assay
[5] = target: rabbit antisera raised against human urinary CSF-1; test: radioimmunoassay using anti-CSF antibodies, COS-A2 supernatant
[6] = target: T1, specific receptors for CSF-1 on J774.2 mouse macrophage cells (mouse); test: radioreceptor assay: competition with 125I-labelled CSF-1 for receptors on J774.2 mouse macrophage cells; MIAPaCa supernatant as standard
[7] = target: "Rabbit 52" polyclonal antiserum raised against purified human urinary CSF-1; test: radioimmunoassay: competition with 125I-labelled MIAPaCa CSF-1 for Rabbit 52 antiserum; medium of SV40-infected CV-1 cells

| Molecule | Bone Marrow Assay, Colony (units/ml) [1] [units/ml] | Bone Marrow Assay, Proliferation (units/ml) [1] [units/ml] | Radioimmunoassay (units/ml) [3] [units/ml] | further results |
| --- | --- | --- | --- | --- |
| pro52 SCSF, expression product of pCSF-pro52 (ligand) | < 100 | < 25 |  |  |
| asp59 SCSF/C∇150, expression product of pCSF-asp59-gly150 (ligand) |  |  |  | Mouse Bone Marrow Colony Assay, Colony Forming Units/ml (Colony Forming Units/ml) [2]: 131000 |
| asp59 SCSF/C∇158, expression product of pCSF-asp59-BamBcl (ligand) |  |  |  | Mouse Bone Marrow Colony Assay, Colony Forming Units/ml (Colony Forming Units/ml) [2]: 72000 |
| SCSF/C∇158, expression product of pCSF-BamBcl (ligand) EEVSEYCSHMIGSGHLQSLQRLIDSQMETSCQITFEFVDQEQLKDPVCYLKKAFLLVQYIMEDTMRFRDNTPNAIAIVQLQELSLRLKSCFTKDYEEHDKACVRTFYETPLQLLEKVKNVFNETKNLLDKDWNIFSKNCNNSFAECSSQGHERQSEGS |  |  | 8800 |  |
| SCSF/C∇158, expression product of pCSF-BamTGA (ligand) EEVSEYCSHMIGSGHLQSLQRLIDSQMETSCQITFEFVDQEQLKDPVCYLKKAFLLVQYIMEDTMRFRDNTPNAIAIVQLQELSLRLKSCFTKDYEEHDKACVRTFYETPLQLLEKVKNVFNETKNLLDKDWNIFSKNCNNSFAECSSQGHERQSEGS |  |  | 8450 |  |
| expression product of pCSF-Bam: 158 amino acids of CSF-1 fused to six vector-derived residues (ligand) EEVSEYCSHMIGSGHLQSLQRLIDSQMETSCQITFEFVDQEQLKDPVCYLKKAFLLVQYIMEDTMRFRDNTPNAIAIVQLQELSLRLKSCFTKDYEEHDKACVRTFYETPLQLLEKVKNVFNETKNLLDKDWNIFSKNCNNSFAECSSQGHERQSEGSRHDKIH |  |  | 9600 | Bone Marrow Assay, Colony (units/ml) [4]: 22600 units/ml |
| SCSF/C∇150, expression product of pCSF-Gly150 (ligand) EEVSEYCSHMIGSGHLQSLQRLIDSQMETSCQITFEFVDQEQLKDPVCYLKKAFLLVQYIMEDTMRFRDNTPNAIAIVQLQELSLRLKSCFTKDYEEHDKACVRTFYETPLQLLEKVKNVFNETKNLLDKDWNIFSKNCNNSFAECSSQG |  |  |  | Radioimmunoassay (units/ml) [5]: 26800 units/ml; Bone Marrow Assay, Colony (units/ml) [4]: 55700 units/ml |
| SCSF, expression product of pcCSF-17 (short form of human CSF-1) (ligand) EEVSEYCSHMIGSGHLQSLQRLIDSQMETSCQITFEFVDQEQLKDPVCYLKKAFLLVQYIMEDTMRFRDNTPNAIAIVQLQELSLRLKSCFTKDYEEHDKACVRTFYETPLQLLEKVKNVFNETKNLLDKDWNIFSKNCNNSFAECSSQGHERQSEGSSSPQLQESVFHLLVPSVILVLLAVGGLLFYRWRRRSHQEPQRADSPLEQPEGSPLTQDDRQVELPV | 11100 | 2800 | 3130 | CSF-1 concentration by radioreceptor assay [6]: 2470 U/ml and 3240 U/ml; CSF-1 by radioimmunoassay (U/ml) [7]: 2340 U/ml |

Now from value to molecule, other results behind:

| Bone Marrow Assay, Colony (units/ml) [1] [units/ml] | Bone Marrow Assay, Proliferation (units/ml) [1] [units/ml] | Radioimmunoassay (units/ml) [3] [units/ml] | Molecule | further results |
| --- | --- | --- | --- | --- |
| 6210 | 2970 |  | gln52 SCSF, expression product of pCSF-gln52 (ligand) |  |
| 9000 | 3380 |  | asp59 SCSF, expression product of pCSF-asp59 (ligand) |  |
